From patent US7029676B2

How the values were obtained:
Human E-cadherin (human) [1] = target: Human E-cadherin (human)
Human E-cadherin (human) [2] = target: Human E-cadherin (human); remark: listed apart in the source
Human E-cadherin (human) [3] = target: Human E-cadherin (human); remark: listed apart in the source
Human E-cadherin (human) [4] = target: Human E-cadherin (human); remark: listed apart in the source
[5] = target: integrin β1 subunit (human) (UniProt P05556)

Substance “α^Eβ7 integrin (from UniProt P38570) (receptor)” has an adhesion of α^Eβ7 COS-7 transfectants to L-M monolayers (Human E-cadherin (human) [1]) of 79%, an adhesion of COS-7 transfectants to 16E6.A5 monolayers (Human E-cadherin (human) [2]) of 267% and an adhesion of IEL to L-M monolayers (percent of IEL bound) (Human E-cadherin (human) [3]) of 89%. It also gave an adhesion of COS-7 transfectants to L-M E-cadherin transfectants (Human E-cadherin (human) [4]) of 81%.

In the case of “α^4β7 integrin (from UniProt P13612) (receptor)”, the adhesion of COS-7 transfectants to 16E6.A5 monolayers (percent bound) (Human E-cadherin (human) [2]) is reported as 9% and the adhesion of COS-7 transfectants to L-M E-cadherin transfectants (percent bound) (Human E-cadherin (human) [4]) is reported as 16%.

4B4 (antibody) was tested, and the inhibition of IEL adhesion to the 16E6.A5 epithelial cell monolayer [5] was 21%.
